pKd: −log10 of the molar value.

The target of test [1] is SARS-CoV-2 RBD, His-tagged, for antibody binding studies (SARS-CoV-2) (UniProt P0DTC2). As to the kind of experiment: BLI. For orientation: BLI is a label-free optical method that tracks binding on a fibre tip over time.
For test [2], the target named is SARS-CoV RBD, His-tagged, for antibody binding studies (SARS-CoV) (UniProt P59594). As to the kind of experiment: BLI.

The term pKd denotes −log10 of the Kd, conventionally taken in molar units. The low end stands for a high Kd, the high end for a low Kd. Take COVA1-16 IgG1 antibody: the pKd was 9.70 in test [1] and 6.90 in test [2].
As to COVA1-16 Fab, His-tagged, the pKd in test [1] is 7.34; in test [2], 6.39.

The values above are taken from article PMC7687367.
